Biological target: T1, full-length His-tagged AQP5 (human, UniProt P55064 1-265)
T1 construct: aquaporin-5 (AQP5), human, full-length construct with His-tag; also called FL-AQP5; full-length AQP5; source: Pichia pastoris X-33, purified (solubilised in NG, Resource S, Superdex 200)
Assay: MST; labeled PIP at 42 nM, 1:1 dilution series of AQP5; 20 mM phosphate buffer pH 7.5, 100 mM NaCl, 0.8% NG; Hill equation fit on total monomeric AQP5 concentration; triplicates
Conditions: both partners purified

T1 sequence (P55064 whole entry): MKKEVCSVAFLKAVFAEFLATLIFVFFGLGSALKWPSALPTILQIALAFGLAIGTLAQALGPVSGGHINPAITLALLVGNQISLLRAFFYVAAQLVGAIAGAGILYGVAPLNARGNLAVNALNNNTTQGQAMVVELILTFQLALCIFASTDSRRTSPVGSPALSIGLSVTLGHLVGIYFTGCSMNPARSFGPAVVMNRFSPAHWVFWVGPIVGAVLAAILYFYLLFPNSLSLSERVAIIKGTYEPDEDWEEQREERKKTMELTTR

- Kd: 570 nM
B1: mature C-terminal His-tag PIP (prolactin-inducible protein, residues 29-146) (natural protein, human, UniProt P12273 29-146, looked up)
chain: QDNTRKIIIKNFDIPKSVRPNDEVTAVLAVQTELKECMVVKTYLISSIPLQGAFNYKYTACLCDDNPKTFYWDFYTNRTVQIAAVVDVIRELGICPDDAAVIPIKNNRFYTIEILKVE
modifications: non homogeneously glycosylated; labeled with an amine-reactive dye (Monolith NT Protein RED-NHS Labeling Kit) in the MST experiments
notes: also called recombinant PIP; purified PIP; source: Pichia pastoris, secreted into the media, purified (HisTrap HP, Superdex 200); not shown: His6 (thrombin-cleavable), C-terminal, kept
